Test results taken from US6565869 (ISTITUTO DI RICERCHE DI BIOLOGIA MOLECOLARE P ANGELETTI S P …, dated 2003).
Numbering of substitutions follows the chain as printed.

T1: CNTF receptor-α (CNTFRα) (UniProt P26992 23-342, limits assumed)
T1 construct: also called CNTFRa; CNTF a-receptor
T1 sequence (looked up): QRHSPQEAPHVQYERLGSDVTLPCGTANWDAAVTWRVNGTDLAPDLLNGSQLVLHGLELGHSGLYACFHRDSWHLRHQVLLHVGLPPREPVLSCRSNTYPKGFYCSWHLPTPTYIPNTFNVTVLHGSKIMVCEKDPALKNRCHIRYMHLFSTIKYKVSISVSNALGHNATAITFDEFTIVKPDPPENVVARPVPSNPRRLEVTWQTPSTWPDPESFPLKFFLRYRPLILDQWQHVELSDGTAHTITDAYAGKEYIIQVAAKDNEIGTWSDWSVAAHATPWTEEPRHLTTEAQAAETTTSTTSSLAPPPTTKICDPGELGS

B1: hCNTF (human ciliary neurotrophic factor), wild type (ligand)
chain: MAFTEHSPLTPHRRDLCSRSIWLARKIRSDLTALTESYVKHQGLNKNINLDSADGMPVASTDQWSELTEAERLQENLQAYRTFHVLLARLLEDQQVHFTPTEGDFHQAIHTLLLQVAAFAYQIEELMILLEYKIPRNEADGMPINVGDGGLFEKKLWGLKVLQELSQWTVRSIHDLRFISSHQTGIPARGSHYIANNKKM
notes: also called human CNTF
B2: (Ser166Gly/Gln167Ala) hCNTF (ligand)
chain: B1 chain with S166G, Q167A
B3: (Gln167Thr) hCNTF (ligand)
chain: B1 chain with Q167T
B4: (Gln63Arg) hCNTF (ligand)
chain: B1 chain with Q63R
B5: (Thr169Ile/His174Ala) hCNTF (ligand)
chain: B1 chain with T169I, H174A
notes: also called (Thr169Ile/His174Ala) hCNTP
B6: (Ser166Asn/Gln167Ala) hCNTF (ligand)
chain: B1 chain with S166N, Q167A
B7: (Ser166Asp/Gln167Ala/Thr169Leu) hCNTF (ligand)
chain: B1 chain with S166D, Q167A, T169L
B8: (Asp30Gln/Ser166Asp/Gln167His) hCNTF (ligand)
chain: B1 chain with D30Q, S166D, Q167H
B9: (Lys160Gln/Gln167Thr) hCNTF (ligand)
chain: B1 chain with K160Q, Q167T
B10: (Gln167Ala) hCNTF (ligand)
chain: B1 chain with Q167A
B11: (Gln167Ala/Arg177Leu) hCNTF (ligand)
chain: B1 chain with Q167A, R177L
B12: (Gln163Ser/Gln167His) hCNTF (ligand)
chain: B1 chain with Q163S, Q167H
B13: (Gln167Tyr) hCNTF (ligand)
chain: B1 chain with Q167Y
B14: (Gln167Ala/Thr169Ser) hCNTF (ligand)
chain: B1 chain with Q167A, T169S
B15: (Gln63Arg/Ser166Asp/Gln167His) hCNTF (ligand)
chain: B1 chain with Q63R, S166D, Q167H
B16: (Val161Leu/Gln167Ala) hCNTF (ligand)
chain: B1 chain with V161L, Q167A
B17: (Ser166Asp/Gln167Ala/Arg177Phe) hCNTF (ligand)
chain: B1 chain with S166D, Q167A, R177F
B18: (Ser166Asp/Gln167His) hCNTF (ligand)
chain: B1 chain with S166D, Q167H
notes: also called DH-CNTF; DH-hCNTF
B19: (Val170Arg/His174Ala) hCNTF (ligand)
chain: B1 chain with V170R, H174A
B20: (Ser166His/Gln167Ala) hCNTF (ligand)
chain: B1 chain with S166H, Q167A
B21: (Gln167Ala/His174Ala) hCNTF (ligand)
chain: B1 chain with Q167A, H174A
B22: (Ser166Ala/Gln167Ala) hCNTF (ligand)
chain: B1 chain with S166A, Q167A
B23: (Lys155Ala/Ser166Asp/Gln167His) hCNTF (ligand)
chain: B1 chain with K155A, S166D, Q167H
B24: (Phe152Ala/Ser166Asp/Gln167His) hCNTF (ligand)
chain: B1 chain with F152A, S166D, Q167H
B25: (Ser166Asp/Gln167Ala) hCNTF (ligand)
chain: B1 chain with S166D, Q167A
B26: (Lys160Gln/Gln167Ala) hCNTF (ligand)
chain: B1 chain with K160Q, Q167A
B27: (Gln167Ala/Thr169Leu) hCNTF (ligand)
chain: B1 chain with Q167A, T169L
B28: (Gln167Ala/Thr169Leu/Phe178Ile) hCNTF (ligand)
chain: B1 chain with Q167A, T169L, F178I

target: T1, CNTF receptor-α (CNTFRα); experiment: solid phase binding assay on CNTFRα
Procedure: The relative binding affinities to CNTF receptor-α (CNTFRα) of hCNTF and different hCNTF variants were determined by solid phase binding assay as previously described (10). […] These variants, like DH-CNTF, have increased utility for treatment of obesity and associated diseases, such as diabetes.

Going from B1 to B2, the “Relative Binding (hCNTF = 1)” value rises from 1.1 relative (hCNTF = 1) to 7.5 relative (hCNTF = 1).

First: B3
Second: B4
The “Relative Binding (hCNTF = 1)” value of the first is higher: 11.8 relative (hCNTF = 1) for the first, 2 relative (hCNTF = 1) for the second.

Going from B5 to B6, the “Relative Binding (hCNTF = 1)” value rises from 0.07 relative (hCNTF = 1) to 12.4 relative (hCNTF = 1).

Going from B7 to B8, the “Relative Binding (hCNTF = 1)” value rises from 21 relative (hCNTF = 1) to 30 relative (hCNTF = 1).

Compared with B9, B10 is higher in “Relative Binding (hCNTF = 1)” value: 3.1 relative (hCNTF = 1) for the first, 9 relative (hCNTF = 1) for the second.

Compared with B11, B12 is lower in “Relative Binding (hCNTF = 1)” value: 11.7 relative (hCNTF = 1) for the first, 4.1 relative (hCNTF = 1) for the second.

First: B13
Second: B14
The “Relative Binding (hCNTF = 1)” value of the first is higher: 9.6 relative (hCNTF = 1) for the first, 6.9 relative (hCNTF = 1) for the second.

Going from B15 to B16, the “Relative Binding (hCNTF = 1)” value falls from 66 relative (hCNTF = 1) to 8.8 relative (hCNTF = 1).

Going from B17 to B18, the “Relative Binding (hCNTF = 1)” value rises from 13.1 relative (hCNTF = 1) to 22.8 relative (hCNTF = 1).

Compared with B19, B20 is higher in “Relative Binding (hCNTF = 1)” value: 3.3 relative (hCNTF = 1) for the first, 8.8 relative (hCNTF = 1) for the second.

Compared with B21, B22 is higher in “Relative Binding (hCNTF = 1)” value: 3.6 relative (hCNTF = 1) for the first, 8.1 relative (hCNTF = 1) for the second.

Compared with B23, B24 is lower in “Relative Binding (hCNTF = 1)” value: 51 relative (hCNTF = 1) for the first, 32 relative (hCNTF = 1) for the second.

Going from B25 to B26, the “Relative Binding (hCNTF = 1)” value falls from 13.5 relative (hCNTF = 1) to 11.7 relative (hCNTF = 1).

Going from B27 to B28, the “Relative Binding (hCNTF = 1)” value falls from 9.6 relative (hCNTF = 1) to 8.4 relative (hCNTF = 1).
